Assay: yeast display, Sf9 membrane polyspecificity reagent, FACS + sequencing; frameworks hold sequencing errors
In short: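 Genes from sorted yeast were amplified by colony PCR, read by MiSeq 2 × 250 sequencing and filtered on CDR length. These cells carried a synthetic nanobody library in Saccharomyces cerevisiae BJ5465 and were sorted by FACS into low and high (top ~1%) gates on anti-HA and streptavidin fluorescence. Polyreactivity is labelled according to the gate of origin.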

With “QVQLVESGGALVQAGGSLRLSCAASGRTFGLTAMGWYRQAPGKERELVAAITWSDDDTYYADSVKARFTNSRDNAKNTVYLQMNSLKPEDTAVYYCAATYPYRQYDYWGQGTQVTVSS” as the sequence, how does the “polyreactivity (PSR sort gate)” value read?
Its value is “low polyreactivity”.

For “QVQLVESGGALVQAGGSLRLSCAASGRTFYPNAMGGYRQAPGKERELVAGSSYGTGSTYYADSVKGRFTISRDNAKNTVYLQMNSLKAEDNAVYYCAADNWAVNAYYWYIYDYWGQGTQVTVSS”, which “polyreactivity (PSR sort gate)” value is on record?
Its value is “low polyreactivity”.

Which “polyreactivity (PSR sort gate)” value does the source give for “QVQLVESGGALVQAGGSLRLSCAASGSIFGSYALGWYRQAPGKERELVASITRVDSTNYADSVKGRFTISRDNAKNTVYLQMNSLKPEDTAVYYCAADITSPAYATYDYWGQGTQVTVSS” here?
Its value is “low polyreactivity”.

With “QVQLVESGGALVQAGGSLRLSCAASGSIFRFYAMGWYRQAPGKERELVAAISWSGGSTYYADSVKGRFTISRDNAKNTVYLQMNSLKPEDTAVYYCNTRYYGGFDSWGQGTQVTVSS” as the sequence, how does the “polyreactivity (PSR sort gate)” value read?
The value was “high polyreactivity”.

Which “polyreactivity (PSR sort gate)” value does the source give for “QVQLVESGGALVQAGGSLRLSCAASGSIFSRYTMGWYRQAPGKERELVAAIPSSGGRTYYADSVKGRFTNSRDNAKNTVYLQMNSLKPEDTAVYYCNAGGAYEYDYWGQGTQVTVSS” here?
The value was “high polyreactivity”.

With “QVQLVESGGALVQAGGSLRLSCAASGSIFYVYAMGWYRQAPGKEREFVAAITWSGGRTYYADSVKGRFTISRDNAKNTVYLQMNSLKPEDTAVYYCAAGKYRYTYYALEYDYWGQGTQVTVSS” as the sequence, how does the “polyreactivity (PSR sort gate)” value read?
The value was “low polyreactivity”.

Which “polyreactivity (PSR sort gate)” value does the source give for “QVQLVESGGALVQAGGSLRLSCAASGSIYGGYTMGWYRHAPGKEMEFVAAISRRGGNTYYADSVKGRFTISRDNAKNTVYLQMNSLKPEDTAVYYCAVRWPSARIQVKLDYWGQGTQVTVSS” here?
The value was “high polyreactivity”.

Which “polyreactivity (PSR sort gate)” value does the source give for “QVQLVESGGALVQAGGSLRLSCAASGSTFDANVMGWYRQAPGKERELVAAISRDTNTYYADSVKGRFTISRDNAKNTVYLQMNSLKPEDTAVYYYWGQGTQVTVSS” here?
The value was “low polyreactivity”.

For “QVQLVESGGALVQAGGSLRLSCAASGSTFFHYAMGWYRQAPGKERELVAAIDSNGGSTYYADSVKGRFTISRDNAKNTVYLQMNSLKPEDTAVYYCAADDLAEFEYDYWGQGTQVTVSS”, which “polyreactivity (PSR sort gate)” value is on record?
Its value is “low polyreactivity”.

With “QVQLVESGGALVQAGGSLRLSCAASGSTSVDYTMGWYRQAPGNDKDLVAAIDYNGDSTYYADSEKGRFTISRDNAKNTFYLQMNSLKPEDTAVYYCAADVWTLDPEVYDYWGPGTQVTVSS” as the sequence, how does the “polyreactivity (PSR sort gate)” value read?
The value was “low polyreactivity”.

With “QVQLVESGGALVQAGGSLRLSCAASGYIFAYYAMGWYRQAPGKERELVATISYGGGSTYYADSVKGRFTISRDNAKNTVYLQMNSLKPEDTAVYYCAAVPWASDGYYSWGQGTQVTVSS” as the sequence, how does the “polyreactivity (PSR sort gate)” value read?
Its value is “low polyreactivity”.

Which “polyreactivity (PSR sort gate)” value does the source give for “QVQLVESGGALVQAGGSLRLSCAASGYIFRYYAMGWYRQAPGKVREFVAAISRNGGSKSYADSVKGRFTISRDNAKNTVYLQMISLKPEDTAVYYCNKRVGFLYKSDYWGQGTQVTVSS” here?
Its value is “high polyreactivity”.

With “QVQLVESGGALVQAGGSLRLSCAYSGLTFYGNTMGWYRQAPGKERELDAAITYSGTRTYYADSVKGRFTISRDTAKNTVYLQMNSLKPEDTAVYYCNALSYANSIDTYDYWGQVTQVTVSS” as the sequence, how does the “polyreactivity (PSR sort gate)” value read?
Its value is “high polyreactivity”.

Which “polyreactivity (PSR sort gate)” value does the source give for “QVQLVESGGALVQAGGSLRLSCGASGSTFHPYAMGWYRQAPGKERELVGAITWRVGSTYYADSVKGRFTISRDNAKNTVYLQMNSLKPEETAVYYCAVSYLSTLVRSRYDYWGQGTQVTVSS” here?
Its value is “low polyreactivity”.

With “QVQLVESGGALVQAGGSLRLSCSASGSIFHGYIMGWYRQAPGKERELVAAITTGGSTNYADSVKGRFTISRDNAKNTVYLQMNSLKPEDTAVYDCATDPYVDPSRDYLELGGYWGQGTQVTVSS” as the sequence, how does the “polyreactivity (PSR sort gate)” value read?
Its value is “low polyreactivity”.

With “QVQLVESGGALVQAGGSLRLTCAASGSIYYVNAMGWYRQAPGKERELVAAISVRGGRTYYADSVKGRFTISRDNAKNTFYLQMNSLKPEDTEVYYCATRISTVGRYDYWGQGTQVTVSS” as the sequence, how does the “polyreactivity (PSR sort gate)” value read?
Its value is “high polyreactivity”.

Which “polyreactivity (PSR sort gate)” value does the source give for “QVQLVESGGALVQAGGSLRVSCAASGFIFYGYAMGWYRQAPGKERELVAAISSGGGRTYYADSVKGRFTISRDNAKNTVYLQMNSLKPEDTAVYYCAAKVYYYTGGGGEDYWGQGTQVTVSS” here?
Its value is “low polyreactivity”.

For “QVQLVESGGALVQAGGSLSLSCAASGSTYSYYAMGWYRQAPGKETEVVAAINRSGGSTYYADSVKGRFTISRDNAKYTVYLQMNSLKPEDTAVYYCAALRSKTVSYDRYDYWGQGTQVTVSS”, which “polyreactivity (PSR sort gate)” value is on record?
Its value is “high polyreactivity”.

For “QVQLVESGGCIVQAGGSLRLSCAASGLIFGPYAMGWYRQAPGKERELVAAISARGGSTYYADSVKGRFTISRDNAKNTVYLQMNSLKPEDTAVYYCAARQYSVNTHYGYNYWGQGTQVTVSS”, which “polyreactivity (PSR sort gate)” value is on record?
Its value is “high polyreactivity”.

For “QVQLVESGGCIVQAGGSLRLSCAASGRNLAPNAMGWSRQAPGKERELVAGITWSGGSTYYADSVKGRFTISRDNAKNTVYLPMNSLKPEDTAVYYCAACRSFPGYGLYYYWGQGTQVTVSS”, which “polyreactivity (PSR sort gate)” value is on record?
The value was “low polyreactivity”.

Which “polyreactivity (PSR sort gate)” value does the source give for “QVQLVESGGCIVQAGGSLRLSCAAYGRIFAKYVMGWSRKAPGKERELVAAITSSGGSTYYADSVKGRFTISRDNAKNTVYVQMNSLKSEDTAVYYGAAGPSYHSSYYSWGQVTQVTVSS” here?
The value was “high polyreactivity”.

With “QVQLVESGGCLEQAGGSLRLSCAASGFTFVSNDMGWYRQAPGKERELVAAISQGGGSTYYADSVKGRFTISRDNAKNTVYLQMNSLKPEDTAVYYCAAEDVYFGYDYWGQGTQVTVSS” as the sequence, how does the “polyreactivity (PSR sort gate)” value read?
Its value is “low polyreactivity”.

For “QVQLVESGGCLGQAGGSLRLTCAASAFTFRHYTKGWYRQAPGKVRVLVAVITRSGGSTYYADSVKGRFTISRDNAKNTVYLQMNRLKPEDTAVYYCAARYKREYNYWGQGTQVTVSS”, which “polyreactivity (PSR sort gate)” value is on record?
The value was “high polyreactivity”.

Which “polyreactivity (PSR sort gate)” value does the source give for “QVQLVESGGCLLQAGGSLRLSCAASGFTFRKNAMGWYRDAPGKERQLVAAISSGTSTYYADSVKVRFTISRDNAKNTVYLQMNSLKPEDTAVYYCAAARYRTDDYCGQGTQVTVSS” here?
Its value is “high polyreactivity”.

With “QVQLVESGGCLVPAGGSLRLSCAASGRTFYYNAMGWYRQAPGKERELVAAISSSGGRTYYADSVKGRFTISRDNGKNTVYLQMNSLKPEDTAVFYCAALTNARGFDYWGQGTQVTVSS” as the sequence, how does the “polyreactivity (PSR sort gate)” value read?
Its value is “high polyreactivity”.

Which “polyreactivity (PSR sort gate)” value does the source give for “QVQLVESGGCLVQAGGRLRLSCAASGRIFYRYSMGWYRQAPGKERELVAAINDVGSTYYADSVKGRFTISRDNAKNTVYLQMNILKPEDTAVYYCNGVNEHQSDFVVPFDYNHWGQGTQVTVSS” here?
Its value is “low polyreactivity”.

With “QVQLVESGGCLVQAGGSIRLSCAASGSTFDINAMGWYRQAPGKERELVASITFSGGSTYYADSVKGRFTISRDNAKNTGYLQMNSLKPEDTAVYYCAADSSGEYPGGYWGQGTQVTVSS” as the sequence, how does the “polyreactivity (PSR sort gate)” value read?
The value was “low polyreactivity”.

For “QVQLVESGGCLVQAGGSLRFSCAASGIIFYGYAMGWYRQAPGKERELVAAISERGGSTYYADSVKGRFTISRDNAKNTVYLQMNSLKPEDTAVYYCAVDYYYLMYWGQGTQVTVSS”, which “polyreactivity (PSR sort gate)” value is on record?
The value was “low polyreactivity”.

Which “polyreactivity (PSR sort gate)” value does the source give for “QVQLVESGGCLVQAGGSLRFSCAASGSTFHRYVMGWYRQAPGKERELVAVINSTGGSTYYADSVKGRYTISRDNAKNTVYLQMNSLKPEDTAVYYCARVTRRGPGYTTLYSRYDYWGQGTQVNVSS” here?
The value was “low polyreactivity”.

With “QVQLVESGGCLVQAGGSLRLICAASGSTFLLNAMGWYRQAPGKVRELVAAITSSGRTNYADSVKGRFTISRDNAKNTVYLQMNSLKPEDTAVYYCNTRYSPGYQGTDVDYWRQGTQVTVSS” as the sequence, how does the “polyreactivity (PSR sort gate)” value read?
The value was “low polyreactivity”.

For “QVQLVESGGCLVQAGGSLRLICAASGSTFRRYAMGWYRQAPGKERELVATISKSGGSTYYADSVKGRFTISRDNAKNTVYLQMNSLKPEDTAVYYCAARSFFYRVSDRRAYIDTNGYWGQGTQVTVSS”, which “polyreactivity (PSR sort gate)” value is on record?
Its value is “high polyreactivity”.

For “QVQLVESGGCLVQAGGSLRLRCAASGRIFLRYDMGWYRQAPGKERELVAAISSGASTYYADSVKGRFTISRDNAKNTVYLQMNSLKPEDTAVFYCAVDRPYYYGYRMDYWGQGSQVTVSS”, which “polyreactivity (PSR sort gate)” value is on record?
The value was “low polyreactivity”.

With “QVQLVESGGCLVQAGGSLRLRCAASGRTLRCYAMGWYRQAPGKEREFVAAISRGTVGTYYADSVKGRFTISRDNAKNTVYLQMNSLKPEDTAVYYCAADRFAYFTNLRLGYYSWGQGTQVTVSS” as the sequence, how does the “polyreactivity (PSR sort gate)” value read?
Its value is “low polyreactivity”.

For “QVQLVESGGCLVQAGGSLRLRCAASGSTFDDNVKGWYRPAPRKDRELVAAISSSGGSTYYADSVKGRFTISRDNAKNTVYLQMNSLKPEDTAVYYCNAVYFGLWGYYSRRSYNYWGQGTQVNVSS”, which “polyreactivity (PSR sort gate)” value is on record?
Its value is “low polyreactivity”.

With “QVQLVESGGCLVQAGGSLRLSCAASGFIFRRYALGWNRQAPGKERELVAAISSSGGRTTYADSVKGRFTISRDNAKNTVYLQMNSLKPEDTAVYYCNADLCPGNHDGYWGQGTQVTVSS” as the sequence, how does the “polyreactivity (PSR sort gate)” value read?
The value was “low polyreactivity”.

With “QVQLVESGGCLVQAGGSLRLSCAASGFIFSRNAIGWYRQAHGKERELVAAISLRGGSTYYADSVKGRFTISRDYAKNTVYLQMNSLKPEDTAVYYCAAPLFSGYDYWVQGTQVTVSS” as the sequence, how does the “polyreactivity (PSR sort gate)” value read?
The value was “low polyreactivity”.

Which “polyreactivity (PSR sort gate)” value does the source give for “QVQLVESGGCLVQAGGSLRLSCAASGFIFSYYALGWYRQAPGKERELVAAITWDGGSTYYADSVKGRFTISRDNAKNSVYLQMNSLKPEDTAVYYCNAYYYYRRPLEGGYWGQGTQVTVSS” here?
The value was “low polyreactivity”.

Which “polyreactivity (PSR sort gate)” value does the source give for “QVQLVESGGCLVQAGGSLRLSCAASGFTFGPYDMGWYRQAPGKERELVAVIIGGDSTNYADSVKGRFTISRDNAKNTVYLQLNSLKPEVTAVYYCAADYIDRVGWMDYWGQGTQVTVSS” here?
The value was “low polyreactivity”.

Which “polyreactivity (PSR sort gate)” value does the source give for “QVQLVESGGCLVQAGGSLRLSCAASGFTFSYYAMGWYRQAPGKERELVAAISSSSGTTYYADSVKRRFTISRDNANNTVYLQMNSLKPEDTAVYYCVVIARDGYDYWGQGTQVTVSS” here?
Its value is “high polyreactivity”.

With “QVQLVESGGCLVQAGGSLRLSCAASGFTLTAYAMGWYRQAPGKEREFVAAISTSGTRTYYADSVKGRFTISRDNAKITVYLQMYSLKPDDTAVYYCAARYSGYQYWKFNYWGQGTQVTVSS” as the sequence, how does the “polyreactivity (PSR sort gate)” value read?
The value was “high polyreactivity”.

With “QVQLVESGGCLVQAGGSLRLSCAASGGTFVTYAMGWYRQAPGKERELVAAITTGGSTYYADSVKGRFTISRDNAKNTVYLQMNSLKPEDSAVYYCAAVYTGSGKRYYKGYYWGQGTQVTVSS” as the sequence, how does the “polyreactivity (PSR sort gate)” value read?
Its value is “low polyreactivity”.

— the nanobody polyreactivity screen of Harvey et al. (2022)
